Reference: publication PMC3767169

Biological target: complement C1q (human) (UniProt P02745)
Assay: fluorescence polarisation

Chain of UniProt P02745 (P02745 23-245, chain 1 of 3): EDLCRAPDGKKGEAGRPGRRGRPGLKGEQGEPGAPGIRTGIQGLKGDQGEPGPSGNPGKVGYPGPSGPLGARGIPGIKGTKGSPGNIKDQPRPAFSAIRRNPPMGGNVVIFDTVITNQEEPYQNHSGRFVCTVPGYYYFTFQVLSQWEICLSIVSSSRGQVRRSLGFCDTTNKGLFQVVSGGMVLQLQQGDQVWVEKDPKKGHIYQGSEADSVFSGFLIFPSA
Chain of UniProt P02745 (P02746 28-253, chain 2 of 3, further chain): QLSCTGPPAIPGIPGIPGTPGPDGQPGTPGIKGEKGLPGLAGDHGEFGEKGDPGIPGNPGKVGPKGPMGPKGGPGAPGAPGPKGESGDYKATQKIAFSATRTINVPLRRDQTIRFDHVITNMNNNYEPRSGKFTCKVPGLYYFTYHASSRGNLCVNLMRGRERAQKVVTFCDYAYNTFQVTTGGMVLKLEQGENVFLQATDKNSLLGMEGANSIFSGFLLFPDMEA
Chain of UniProt P02745 (P02747 29-245, chain 3 of 3, further chain): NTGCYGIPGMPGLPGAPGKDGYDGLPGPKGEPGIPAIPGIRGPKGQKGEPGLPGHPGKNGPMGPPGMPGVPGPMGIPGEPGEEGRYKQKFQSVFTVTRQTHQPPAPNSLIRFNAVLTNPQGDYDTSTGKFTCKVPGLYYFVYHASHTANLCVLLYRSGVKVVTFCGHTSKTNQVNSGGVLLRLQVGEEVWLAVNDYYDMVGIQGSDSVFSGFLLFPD

change in anisotropy (Δr): 0.081
Substance: modified C-reactive protein (mCRP) (from UniProt P02741 19-224) (natural protein)
